According to patent US20250186491A1, “COMPOSITIONS AND METHODS FOR TREATING CANCER WITH CHIMERIC TIM RECEPTORS IN COMBINATION WITH INHIBITORS OF POLY (ADP-RIBOSE) POLYMERASE” (CERO THERAPEUTICS HOLDINGS, INC., priority 2020, published 2025):
“Also recorded” adds a separate entry of the source. Where two headings read alike, the source gives them in different places.

Key:
[1] = tested on: Kuramochi-mCh-NLS cells; experiment: Co-culture of chimeric Tim receptor T cells with Niraparib-treated Kuramochi cells (IncuCyte); type: cell-based, human
Protocol: Kuramochi cells expressing a mCherry-NLS plasmid were incubated for 20 hours with 25, 12.5, or 6.25 μM Niraparib. The next day the Niraparib concentration was reduced to 0.52 μM and co-cultures of primary human CD4+ and CD8+ T cells expressing chimeric Tim receptor construct 13A (TIM4 binding domain-CD28 transmembrane domain—CD28 costimulatory domain-CD3ζ signaling domain) (SEQ ID NO 162) were added to the Kuramochi culture. […] The number of Kuramochi cells expressing mCherry-NLS was monitored via IncuCyte.
Kuramochi cells expressing a mCherry-NLS plasmid were incubated for ˜20 hours with 1.56 μM Niraparib. The next day, media were removed from cells and replaced with fresh media with 0 μM Niraparib, and primary human CD4+ and CD8+ T cells expressing chimeric Tim receptor CTX140 (Tim4 binding domain-CD28 hinge-CD28 transmembrane-CD28 costimulatory domain-DAP12)(SEQ ID NO: 195) or CTX156 (tEGFR control) were added to the Kuramochi culture. The number of Kuramochi cells expressing mCherry-NLS was monitored via IncuCyte.
21500 Kuramochi ovarian cancer cells expressing an mCherry-NLS plasmid were plated on day 0.25, 12.5, or 6.25 μM Niraparib were added to cell culture ˜4 hours later. ˜20 hours after initial Niraparib dose, primary human CD4+ and CD8+ T cells expressing chimeric Tim receptor CTX137 (Tim4 binding domain-CD28 transmembrane-CD28 costimulatory domain-DAP12) (SEQ ID NO: 197) or CTX156 (tEGFR control) and maintenance dose of 0.52 μM Niraparib were added.
T cell transduction and culturing: CD4 and CD8 T cells were isolated from frozen healthy donor PBMCs using Miltenyi CD4+ and CD8+ isolation kits. CD4 and CD8 T cells were then mixed in a 1:1 ratio and incubated overnight in a flat bottom 24 well plate in OpTmizer medium supplemented with cell serum replacement, IL-Glutamine, GlutaMAX, and IL-2, IL-7, and IL-15 cytokines, and TransAct diluted 1:50. […] T cells were counted and supplemented with fresh medium approximately every two days thereafter. […]

[2] = low phosphatidylserine density, cited from earlier work

B1: CTX140: Tim4 binding domain-CD28 hinge-CD28 transmembrane-CD28 costimulatory domain-DAP12, SEQ ID NO: 195 (protein)
chain: MSKEPLILWLMIEFWWLYLTPVTSETVVTEVLGHRVTLPCLYSSWSHNSNSMCWGKDQCPYSGCKEALIRTDGMRVTSRKSAKYRLQGTIPRGDVSLTILNPSESDSGVYCCRIEVPGWFNDVKINVRLNLQRASTTTHRTATTTTRRTTTTSPTTTRQMTTTPAALPTTVVTTPDLTTGTPLQMTTIAVFTTANTCLSLTPSTLPEEATGLLTPEPSKEGPILTAESETVLPSDSWSSVESTSADTVLLTSKESKVWDLPSTSHVSMWKTSDSVSSPQPGASDTAVPEQNKTTKTGQMDGIPMSMKNEMPISQIEVMYPPPYLDNEKSNGTIIHVKGKHLCPSPLFPGPSKPFWVLVVVGGVLACYSLLVTVAFIIFWVRSKRSRLLHSDYMNMTPRRPGPTRKHYQPYAPPRDFAAYRSYFLGRLVPRGRGAAEAATRKQRITETESPYQELQGQRSDVYSDLNTQRPYYK
modifications: Tim4 binding domain-CD28 hinge-CD28 transmembrane-CD28 costimulatory signaling domain-DAP12 signaling domain, amino acids 1-24 are signal peptide(CTX140)
- number of Kuramochi cells in culture vs mock transduction control ([1]; Niraparib 1.56 μM pre-incubation ~20 h, then 0 μM, control CTX156, FIG. 5): reduces Kuramochi cell numbers; also recorded: significantly reduce the number of Kuramochi cells

B2: Tim-4: phosphatidylserine receptor typically expressed on antigen presenting cells (protein, UniProt Q96H15 25-378, looked up)
T-cell immunoglobulin and …: ETVVTEVLGHRVTLPCLYSSWSHNSNSMCWGKDQCPYSGCKEALIRTDGMRVTSRKSAKYRLQGTIPRGDVSLTILNPSESDSGVYCCRIEVPGWFNDVKINVRLNLQRASTTTHRTATTTTRRTTTTSPTTTRQMTTTPAALPTTVVTTPDLTTGTPLQMTTIAVFTTANTCLSLTPSTLPEEATGLLTPEPSKEGPILTAESETVLPSDSWSSVESTSADTVLLTSKESKVWDLPSTSHVSMWKTSDSVSSPQPGASDTAVPEQNKTTKTGQMDGIPMSMKNEMPISQLLMIIAPSLGFVLFALFVAFLLRGKLMETYCSQKHTRLDYIGDSKNVLNDVQHGREDEDGLFTL
- binding at Low PtdSer [2]: Minimal
- binding at Low PtdSer ([2]; listed as Tim4 binding domain): binds minimally

B3: CTX137: Tim4 binding domain-CD28 transmembrane-CD28 costimulatory domain-DAP12, SEQ ID NO: 197 (protein)
chain: MSKEPLILWLMIEFWWLYLTPVTSETVVTEVLGHRVTLPCLYSSWSHNSNSMCWGKDQCPYSGCKEALIRTDGMRVTSRKSAKYRLQGTIPRGDVSLTILNPSESDSGVYCCRIEVPGWFNDVKINVRLNLQRASTTTHRTATTTTRRTTTTSPTTTRQMTTTPAALPTTVVTTPDLTTGTPLQMTTIAVFTTANTCLSLTPSTLPEEATGLLTPEPSKEGPILTAESETVLPSDSWSSVESTSADTVLLTSKESKVWDLPSTSHVSMWKTSDSVSSPQPGASDTAVPEQNKTTKTGQMDGIPMSMKNEMPISQFWVLVVVGGVLACYSLLVTVAFIIFWVRSKRSRLLHSDYMNMTPRRPGPTRKHYQPYAPPRDFAAYRSYFLGRLVPRGRGAAEAATRKQRITETESPYQELQGQRSDVYSDLNTQRPYYK
modifications: Tim4 binding domain-CD28 transmembrane-CD28 costimulatory signaling domain-DAP12 signaling domain, amino acids 1-24 are signal peptide (CTX137)
- Kuramochi cell numbers ([1]; Niraparib 25 μM pre-incubation + 0.52 μM maintenance, control CTX156, FIG. 6): reduces Kuramochi cell numbers
- number of Kuramochi cells in culture vs mock transduction control ([1]; Niraparib 25, 12.5 or 6.25 μM pre-treatment ~20 h, then 0.52 μM, CD4+/CD8+ T cells, FIG. 4, FIG. 7): reduces Kuramochi cell numbers; also recorded: significantly reduce the number of Kuramochi cells
